“And” between values parts separate entries of the source, which are not always exact repeats. Identical values can stand only once.
Target: T1, CRF2-4/zcytor11 heterodimeric receptor on BaF3/CRF2-4/zcytor11 cells (human, UniProt Q08334 20-325, limits assumed)
T1 sequence 1: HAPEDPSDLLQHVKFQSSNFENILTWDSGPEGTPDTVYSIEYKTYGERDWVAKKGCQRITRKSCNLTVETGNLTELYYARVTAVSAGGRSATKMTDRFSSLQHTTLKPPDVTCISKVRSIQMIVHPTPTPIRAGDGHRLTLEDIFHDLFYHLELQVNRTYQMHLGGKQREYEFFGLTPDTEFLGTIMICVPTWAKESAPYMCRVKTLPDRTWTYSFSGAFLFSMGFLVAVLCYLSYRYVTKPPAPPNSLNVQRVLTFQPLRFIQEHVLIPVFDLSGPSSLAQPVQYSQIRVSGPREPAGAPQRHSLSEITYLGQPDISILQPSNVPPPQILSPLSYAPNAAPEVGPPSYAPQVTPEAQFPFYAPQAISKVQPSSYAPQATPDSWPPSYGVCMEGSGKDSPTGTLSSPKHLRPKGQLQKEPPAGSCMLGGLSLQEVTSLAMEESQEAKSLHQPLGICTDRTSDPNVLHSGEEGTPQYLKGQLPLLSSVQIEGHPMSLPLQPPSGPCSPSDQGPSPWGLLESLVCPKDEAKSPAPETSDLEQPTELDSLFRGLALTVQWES
T1 sequence 2: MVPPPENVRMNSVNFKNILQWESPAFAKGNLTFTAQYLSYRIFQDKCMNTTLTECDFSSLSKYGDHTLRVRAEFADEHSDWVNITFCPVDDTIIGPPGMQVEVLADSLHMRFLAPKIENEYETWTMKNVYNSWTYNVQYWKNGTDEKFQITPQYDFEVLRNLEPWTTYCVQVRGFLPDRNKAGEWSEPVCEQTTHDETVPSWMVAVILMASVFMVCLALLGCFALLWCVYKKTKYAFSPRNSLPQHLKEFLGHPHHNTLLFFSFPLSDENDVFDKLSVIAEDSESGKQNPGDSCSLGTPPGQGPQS
Experiment: cell-based or functional assay

B1: ZCYTO18-CEE polypeptide purified from BHK 570 cells (ligand)
chain: APISSHCRLDKSNFQQPYITNRTFMLAKEASLADNNTDVRLIGEKLFHGVSMSERCYLMKQVLNFTLEEVLFPQSDRFQPYMQEVVPFLARLSNRLSTCHIEGDDLHIQRNVQKLKDTVKKLGESGEIKAIGELDLLFMSLRNACIEYMPME
proliferation of BaF3/CRF2-4/zcytor11 cells (Alamar Blue): ~15 fold over background and 2 fold induction

Reference: patent EP1242600B1 (ZymoGenetics, Inc., dated 2001)
